This note sets out measurements from paper PMC9687425, “Global Regulator AdpA_1075 Regulates Morphological Differentiation and Ansamitocin Production in Actinosynnema pretiosum subsp. auranticum”.

For series [1], the target named is T1, AdpA_1075 (Actinosynnema pretiosum subsp. …, UniProt A0A290Z1C2 1-322).
T1 sequence: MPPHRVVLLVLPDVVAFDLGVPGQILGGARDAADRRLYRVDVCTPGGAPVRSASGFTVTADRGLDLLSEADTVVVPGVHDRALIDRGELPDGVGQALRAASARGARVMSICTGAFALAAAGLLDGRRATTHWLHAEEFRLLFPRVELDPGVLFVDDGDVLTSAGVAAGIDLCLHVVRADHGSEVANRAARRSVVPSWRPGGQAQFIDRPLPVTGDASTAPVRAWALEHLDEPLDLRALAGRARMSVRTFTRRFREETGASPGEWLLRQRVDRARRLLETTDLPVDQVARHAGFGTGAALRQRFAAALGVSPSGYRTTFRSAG
As to the kind of experiment: EMSA; shifted with 1000 nM protein; excess unlabeled specific DNA competes; Beyotime Chemiluminescent EMSA Kit (buffer, salt and pH not stated); 20 ng biotin-labeled probe, 10 min at room temperature, 5% polyacrylamide gel. Conditions: protein: recombinant; tags: His6 (pET-28a NdeI/HindIII; the reverse primer keeps the stop codon, so N-terminal tag; named AdpA_1075-His6 in the text); chain copies: 2; label: 5' biotin on strand 1; blunt. On the technique in general: Mobility shift assays separate free from complexed probe on a gel.

Series [2] has as its target T1, AdpA_1075. The series is described as follows: EMSA; protein concentration-dependent shift; excess unlabeled specific DNA competes; Beyotime Chemiluminescent EMSA Kit (buffer, salt and pH not stated); 20 ng biotin-labeled probe, 10 min at room temperature, 5% polyacrylamide gel. The settings on record: protein: recombinant; tags: His6 (pET-28a NdeI/HindIII; the reverse primer keeps the stop codon, so N-terminal tag; named AdpA_1075-His6 in the text); chain copies: 2; label: 5' biotin on strand 1; blunt.

B1: Pasm28 (dsDNA)
DNA 1: CGCAGTGGCCCGAACGGGTCCGCAGTGGCCCGAACGGGTCCGCAGTGGCCCGAACGGGTC
DNA 2: GACCCGTTCGGGCCACTGCGGACCCGTTCGGGCCACTGCGGACCCGTTCGGGCCACTGCG
For the molecule B1, in the series with AdpA_1075 [1], the binding result is reported as “binds”.

B2: PssgA (dsDNA)
DNA 1: GTGTTGGCCGGAACCACGGTGTTGGCCGGAACCACGGTGTTGGCCGGAACCACG
DNA 2: CGTGGTTCCGGCCAACACCGTGGTTCCGGCCAACACCGTGGTTCCGGCCAACAC
Turning to B2, the binding result with AdpA_1075 [2] is “binds”.
